According to patent US9265844B2, “Protease degradable polypeptides and uses thereof” (THE METHODIST HOSPITAL SYSTEM, priority 2010, dated 2016):
No end group written: not given here. d = 2'-deoxy (DNA); r = 2'-OH (RNA)

What was measured:
Jurkat cells = test: Fluorescence retention, flow cytometry; format: cell-based; details: day 4
Description: Jurkat cells (1.0×10^6 cells) were seeded in a 12-well culture plate (BD Falcon, San Jose, Calif.) together with 5L AuNPs (1.26×10^9 particles) in 400 μl RPMI 1640 medium and cultured for 24 hours in the dark at 37° C. in a 5% CO2 atmosphere. Cells (4×10^5) were then transferred to a FACS tube after three washes with PBS, and the FITC fluorescence signal inside the cells was measured using a BD LSR II flow cytometry (BD Biosciences, San Jose, Calif.). Remaining cells were cultured in 6-well culture plates (BD Falcon) in 4 ml RPMI 1640 medium. The procedure was repeated at different time points, up to 21 days. In a separate set of experiments, Jurkat cells (1.0×10^6) were incubated with CM-DiI (1 μM) or CMTMR (2 μM) following the manufacturer's instructions. On the designated day, the fluorescence signal of CM-DiI or CMTMR was measured using a PE filter set by a BD LSR II flow cytometry.

HeLa cells = test: Live cell imaging by fluorescence microscopy; format: cell-based, human; details: compared with 5L AuNPs
Description: Fluorescence images of live cells were acquired using a fluorescence microscopy system (Olympus, Tokyo, Japan). Briefly, HeLa and MDA-MB231 cells were collected by trypsinization, counted, and plated in a 96-well black clear-bottom culture plate (Corning Life Sciences, Pittston, Pa.) at a density of 1×10^3 cells per well. After 1 day, AuNPs (2.52×10^8 particles) were added and incubated for 12 hours. Cells were then washed three times with PBS and cultured in phenol red-free medium and imaged with a fluorescence microscopy at the time points indicated. In a separate set of experiment, cells were treated with CellTrackers, CM-DiI (2 μM), or CMTMR (7.5 μM, Invitrogen). One day after cell seeding, HeLa and MDA-MB231 cells were incubated with CM-DiI for 5 minutes at 37° C. and then further incubated at 4° C. for an additional 15 minutes according to manufacturer's protocol. After removing the medium, the cells were then incubated for an additional 15 minutes at 4° C. For CMTMR study, cells were incubated with CMTMR for 30 minutes at 37° C. and the medium was then replaced with fresh medium and incubated for a further 30 minutes. After labeling with CM-DiI or CMTMR, cells were washed three times with PBS and cultured in phenol red-free medium and imaged under a fluorescence microscopy as indicated.

Cath E [1] = biological target: T1, Cath E (Homo sapiens, UniProt P14091); test: Ex vivo NIRF imaging of MDA PATC-3 orthotopic tumors in mice; parameters: endogenous in cells; host or cells: primary patient PDAC tumour grafts (subcutaneous) and MDA PATC-3 orthotopic tumours in immunodeficient mice; details: organs excised, 48 hours after iv probe
T1 sequence (P14091 54-396): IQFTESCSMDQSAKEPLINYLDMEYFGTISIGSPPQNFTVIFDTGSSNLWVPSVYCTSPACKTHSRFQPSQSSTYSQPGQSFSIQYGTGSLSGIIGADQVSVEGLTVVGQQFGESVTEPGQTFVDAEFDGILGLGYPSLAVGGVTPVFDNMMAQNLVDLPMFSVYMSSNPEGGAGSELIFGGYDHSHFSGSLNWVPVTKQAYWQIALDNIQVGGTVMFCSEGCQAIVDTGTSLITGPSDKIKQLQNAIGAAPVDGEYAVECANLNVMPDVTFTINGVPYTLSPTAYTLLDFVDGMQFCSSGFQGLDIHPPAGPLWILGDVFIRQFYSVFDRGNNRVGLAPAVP
Description: To establish orthotopic tumors, mice were anesthetized as described above, and the pancreas was exposed through a left abdominal incision (laparotomy). Subconfluent MDA PATC-3 cells were detached with 0.25% trypsin-EDTA and cell viability was assessed by trypan blue exclusion. Cells (1×10^6) were resuspended in 50 uL of Hanks Balanced Salt Solution (HBSS) and directly injected into the pancreas (caudal). After tumor implantation, the pancreas was carefully returned to the peritoneal cavity and the abdomen was closed. Two months after tumor implantation, fluorescent probe was injected via tail vein and imaged 48 hours after injection.
(§1) Subcutaneous models (human material PDAC tumor grafts with mice bearing 2 tumors each n=4, MDA PATC-3 orthotopic model n=3, MPanc96 expressing low levels of Cath E (MPanc96-FG30) n=10, and MPanc96 expression high levels of Cath E (Mpanc96-Cath E) n=10) and two transgenic models with litter controls (n=5 each) were used to assess the usefulness of the Cath E-activatable imaging probe. […] White light and near infrared fluorescence (NIRF) images were acquired sequentially using Cy5.5 fluorescence filters (615-665 nm excitation filter and 695-770 nm emission filter). […] Fluorescence variations between different organs/tissues were corrected by subtracting the autofluorescence signals obtained from imaging organs/tissues of mice without any probe injected. […]

Cath E [2] = biological target: T2, Cath E (Mus musculus, UniProt P70269); test: Ex vivo NIRF imaging of GEMM pancreas with PanIN lesions; format: in vivo; details: 48 hours after probe injection, 2 months old mice
T2 construct: from tissue; host or cells: pancreas, PDAC tumours and PanIN lesions of GEMMs (cLGL-KRasG12V/Bac-Ela-CreER; p53 conditional deletion/LSL-KrasG12D/Pdx1-Cre)
T2 sequence (P70269 60-397): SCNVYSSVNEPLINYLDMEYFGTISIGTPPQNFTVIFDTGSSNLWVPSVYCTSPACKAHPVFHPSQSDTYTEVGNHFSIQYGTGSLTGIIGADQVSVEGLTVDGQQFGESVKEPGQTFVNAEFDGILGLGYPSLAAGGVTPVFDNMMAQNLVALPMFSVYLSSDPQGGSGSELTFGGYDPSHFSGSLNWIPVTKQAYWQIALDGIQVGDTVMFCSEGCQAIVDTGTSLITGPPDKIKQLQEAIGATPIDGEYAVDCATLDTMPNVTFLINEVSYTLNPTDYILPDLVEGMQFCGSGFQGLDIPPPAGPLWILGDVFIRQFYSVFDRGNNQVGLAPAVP
Description: To assess whether Cath E activity served as a biomarker for in vivo imaging, studies were performed in human pancreatic cancer xenografts in immunodeficient mice (acquired from the National Cancer Institute with age of the mice ranging from 5-6 weeks old) and transgenic mice. Animals were housed at the MD Anderson Cancer Center animal facility. Mice used for optical imaging studies were fed with a chlorophyll-free diet. Genetic PanINs and PDAC mouse models were developed by crossing cLGL-KRas^G12V with Bac-Ela-CreER mice as described previously (Ji et al., Gastroenterology 137:1072-82 (2009)). These animals developed PanINs at 2 months and PDAC by ˜6 months. […]
as §1, with “The mean fluorescence flux” for “Fluorescence variations between different organs/tissues were corrected by subtracting the autofluorescence signals obtained”, “each image was defined as photons per second per centimeter squared per steradian (p/s/cm^2/sr).” for “imaging organs/tissues of mice without any probe injected.”

Cath E [3] = biological target: T1, Cath E; test: In vivo NIRF imaging of primary patient tumor grafts in mice; parameters: endogenous in cells; host or cells: primary patient PDAC tumour grafts (subcutaneous) and MDA PATC-3 orthotopic tumours in immunodeficient mice; details: 48 hours after iv probe, immunodeficient mice
Description: Human cancer specimens used for transplantation as primary tumor grafts were obtained from patients with pancreatic invasive ductal adenocarcinoma who had undergone initial surgical resection at UT MD Anderson Cancer Center (Kim et al., Nat. Protoc. 4:1670-80 (2009)). Nude mice were anesthetized with a single intraperitoneal injection of ketamine (100 mg/kg) and xylazine (10 mg/kg). After washing with sterile PBS, tumor fragments were placed in the subcutaneous space of immunodeficient mice (Kim et al., Nat. Protoc. 4:1670-80 (2009)). When the tumor was visible, it was dissected out and transplanted into male nude mice and allowed to grow for 30 days. […]
as §1, with “The mean fluorescence flux” for “Fluorescence variations between different organs/tissues were corrected by subtracting the autofluorescence signals obtained”, “each image was defined as photons per second per centimeter squared per steradian (p/s/cm^2/sr).” for “imaging organs/tissues of mice without any probe injected.”

Cath E [4] = biological target: T2, Cath E; test: Ex vivo NIRF imaging of GEMM PDAC tumors; format: in vivo
Description: To assess whether Cath E activity served as a biomarker for in vivo imaging, studies were performed in human pancreatic cancer xenografts in immunodeficient mice (acquired from the National Cancer Institute with age of the mice ranging from 5-6 weeks old) and transgenic mice. Animals were housed at the MD Anderson Cancer Center animal facility. Mice used for optical imaging studies were fed with a chlorophyll-free diet. Genetic PanINs and PDAC mouse models were developed by crossing cLGL-KRas^G12V with Bac-Ela-CreER mice as described previously (Ji et al., Gastroenterology 137:1072-82 (2009)). These animals developed PanINs at 2 months and PDAC by ˜6 months. […] PDAC in these mice developed in 6-8 weeks after birth (Bardeesy et al., Proc. Natl. Acad. Sci. USA 103:5947-52 (2006)). Littermates without PDAC served as controls. LSL-KRas^G12D, p53 floxed, and Pdx-1-Cre genetic mice were obtained from the Mouse Models for Human Cancer Consortium Repository (Rockville, Md.).
Subcutaneous models (human material PDAC tumor grafts with mice bearing 2 tumors each n=4, MDA PATC-3 orthotopic model n=3, MPanc96 expressing low levels of Cath E (MPanc96-FG30) n=10, and MPanc96 expression high levels of Cath E (Mpanc96-Cath E) n=10) and two transgenic models with litter controls (n=5 each) were used to assess the usefulness of the Cath E-activatable imaging probe. Animals were injected with a single dose of the optical imaging probe (1 nmol/100 μl PBS) or saline (controls) intravenously through tail vein using a 30 gauge syringe needle. The anesthetized mice were placed in the heated imaging platform of IVIS-100/Spectrum optical imaging systems (Xenogen/Caliper, Mountain View, Calif.). White light and near infrared fluorescence (NIRF) images were acquired sequentially using Cy5.5 fluorescence filters (615-665 nm excitation filter and 695-770 nm emission filter). Mice were imaged 48 hours post probe intravenous injection. Mice were sacrificed and organs/tissues were excised and rinsed with PBS then imaged for their associated NIRF. Fluorescence variations between different organs/tissues were corrected by subtracting the autofluorescence signals obtained from imaging organs/tissues of mice without any probe injected. General illumination setting and image acquisition parameters were: epi-illumination; 0.5 sec. exposure time; f/stop=2; binning (HR)4; field of view (FOV=12.9 cm or 6.5 cm width and height). The mean fluorescence flux from each image was defined as photons per second per centimeter squared per steradian (p/s/cm^2/sr). Acquired images were analyzed using Living Image 3.1 software (Xenogen/Caliper, Alameda, Calif.). Fluorescence contrast, defined as radiance, was quantified using identical size regions of interest (ROI).

[5] = tested on: firefly luciferase in MDA-MB231-luc2 cells; test: Luciferase gene silencing, bioluminescence; format: cell-based, human; details: 5 days, same conditions
Description: For the examination of the gene silencing effect, bioluminescence measurement was performed after incubating with various multilayered AuNPs. Cells were seeded in a 96-well black clear bottom culture plate at a density of 2.5×10^3 (or 1.25×10^4 of LNCaP-luc2) cells per well. One day later, different sRAuNP (1.26×10^8 particles) were added to each well and cultured for an additional 24 hours. The cells were further cultured in phenol red free medium for another 5 days. Manufacturer's direction was followed for the transfection with Lipofectamine. Bioluminescence measurement was performed using IVIS 200 (Caliper) immediately after addition of 125 μg mL^−1 of D-Luciferin (Regis).

CCCCCCCCCCCCCCCCCCN1C(=CC=CC2=[N+](CCCCCCCCCCCCCCCCCC)c3ccccc3C2(C)C)C(C)(C)c2cc(CNC(=O)c3ccc(CCl)cc3)ccc21.[Cl-] [CM-DiI]
fluorescence intensity, % of the original intensity (Jurkat cells): 8% | signal strength (HeLa cells): much weaker than that of the 5L AuNPs

Cath E-activatable imaging probe: Cy5.5-labeled Ala-Gly-Phe-Ser-Leu-Pro-Ala-Gly-CysCONH2 (SEQ ID NO:29) loaded on D-polyethylene glycol protected grafted copolymer (DPGC) (AGFSLPAGC-NH2; also: Cy5.5 label, place not given here, loaded on D-polyethylene glycol protected grafted copolymer (DPGC))
fluorescence signal at orthotopic primary cell tumors (Cath E [1]): strong signal specifically localized to the tumors in the pancreas | increase in fluorescence in pancreas with PanIN lesions compared to normal pancreas (Cath E [2]): ~3 fold | fluorescence signal at subcutaneous patient tumor grafts (Cath E [3]): strong specific fluorescence signal localized to the implanted tumor grafts | increase in fluorescence in pancreas tumors compared to normal pancreas (Cath E [4]; 48 hours after 1 nmol probe iv, pooled GEMMs): ~15 fold | tumor to non-tumor signal ratio, tumor/bone (Cath E [4]; 48 hours after probe): 2.6 | tumor to non-tumor signal ratio, tumor/kidney (Cath E [4]; 48 hours after probe): 1.9 | tumor to non-tumor signal ratio, tumor/lung (Cath E [4]; 48 hours after probe): 2.9 | tumor to non-tumor signal ratio, tumor/muscle (Cath E [4]; 48 hours after probe): 5.5 | tumor to non-tumor signal ratio, tumor/normal pancreas (Cath E [4]; 48 hours after probe): 2.2 | tumor to non-tumor signal ratio, tumor/small intestine (Cath E [4]; 48 hours after probe): 1.7 | tumor to non-tumor signal ratio, tumor/spleen (Cath E [4]; 48 hours after probe): 3.9

Free unformulated siRNA: siRNA against luciferase, SEQ ID NO:17/18, unformulated (chain 1 CGUACGCGGAAUACUUCGATT; chain 2 UCGAAGUAUUCCGCGUACGTT; sugars from the 5' end r19 d2, backbone not given here)
silencing effect [5]: didn't show any appreciable effect
